Measurements as given in article PMC8294589.

Target: PP2A-B56γ1 holoenzyme (UniProt P30153)
Sequence (P30153 whole entry, chain 1 of 3, other chains not shown): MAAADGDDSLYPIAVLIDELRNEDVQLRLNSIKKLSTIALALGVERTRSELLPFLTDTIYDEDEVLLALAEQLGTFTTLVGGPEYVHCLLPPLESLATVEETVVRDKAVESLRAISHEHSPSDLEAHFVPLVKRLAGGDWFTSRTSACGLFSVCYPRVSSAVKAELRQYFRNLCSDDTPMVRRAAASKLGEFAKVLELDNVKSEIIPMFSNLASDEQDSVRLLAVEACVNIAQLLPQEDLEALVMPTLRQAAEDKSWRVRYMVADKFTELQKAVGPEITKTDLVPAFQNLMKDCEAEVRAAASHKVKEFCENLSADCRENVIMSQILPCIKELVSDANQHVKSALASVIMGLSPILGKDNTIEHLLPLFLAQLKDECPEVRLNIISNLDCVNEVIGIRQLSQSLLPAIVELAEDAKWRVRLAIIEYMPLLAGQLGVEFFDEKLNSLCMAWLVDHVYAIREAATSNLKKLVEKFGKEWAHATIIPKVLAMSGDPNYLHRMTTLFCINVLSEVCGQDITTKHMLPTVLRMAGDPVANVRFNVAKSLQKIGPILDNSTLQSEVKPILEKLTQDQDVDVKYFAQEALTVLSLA
Sequence (P67775 whole entry, chain 2 of 3, other chains not shown, further chain): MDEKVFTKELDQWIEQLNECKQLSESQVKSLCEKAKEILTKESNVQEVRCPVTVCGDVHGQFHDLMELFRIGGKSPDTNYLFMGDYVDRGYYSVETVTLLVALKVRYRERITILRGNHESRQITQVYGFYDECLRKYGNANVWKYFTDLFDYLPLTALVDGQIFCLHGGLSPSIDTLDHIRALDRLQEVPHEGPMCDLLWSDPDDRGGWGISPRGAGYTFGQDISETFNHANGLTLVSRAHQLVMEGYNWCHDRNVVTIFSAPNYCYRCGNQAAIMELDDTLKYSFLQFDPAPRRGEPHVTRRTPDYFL

Sequence of pS133-CREB (129–154) peptide (P16220 129-154): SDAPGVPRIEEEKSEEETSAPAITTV

**Q.** How did the Km of PP2A-B56γ1 holoenzyme phosphatase activity toward pS133-CREB (129–154), steady-state kinetics with a phosphate sensor (peptide 3.9 to 250 μM) turn out when “pS133-CREB (129–154) peptide (from UniProt P16220-2 129-154)” was run?
**A.** 10.3 μM
